These results are taken from patent publication US20120058051A1 (US Dept. of Health and Human Services, published 2012).

The target of one experiment is T1, Fc-hROR(d3) (human, UniProt Q01973 308-406, limits assumed).
T1 construct: domain: d3-Kringle; Order from the name; not shown: human Fc region
Nature of the experiment: ELISA, coated domain construct. For orientation: An ELISA detects its analyte on a solid surface through an enzyme-linked reagent.

The next experiment concerns the target T2, Fc-hROR1(d2) (human, UniProt Q01973 161-307, limits assumed).
T2 construct: domain: d2-Frizzled; Order from the name; not shown: human Fc region
In words: ELISA, coated domain construct.

The target in another experiment is T3, Fc-hROR1(d2d3) (human, UniProt Q01973 161-406, limits assumed).
T3 construct: domain: d2-Frizzled and d3-Kringle; Order from the name; not shown: human Fc region
T3 sequence (Q01973 161-406 limits assumed): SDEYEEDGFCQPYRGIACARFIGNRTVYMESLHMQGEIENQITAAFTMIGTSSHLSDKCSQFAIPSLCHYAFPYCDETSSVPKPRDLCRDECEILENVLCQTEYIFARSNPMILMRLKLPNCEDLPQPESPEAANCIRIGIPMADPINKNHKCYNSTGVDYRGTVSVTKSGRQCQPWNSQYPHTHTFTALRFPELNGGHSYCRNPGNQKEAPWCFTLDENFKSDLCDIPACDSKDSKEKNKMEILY
Nature of the experiment: ELISA, coated domain construct.

Experiment [1] has as its target T4, human ROR1-ECD (ROR1-derived extracellular domain fragment without Fc) (human, UniProt Q01973 30-406).
T4 construct: extracellular domain; also called hROR1ECD; ROR-ECD
Nature of the experiment: SPR (BIACORE X100), ROR1-ECD coupled to CM5 chip, bivalent IgG injected, 1:1 Langmuir model.

T1 sequence (Q01973 308-406 limits assumed): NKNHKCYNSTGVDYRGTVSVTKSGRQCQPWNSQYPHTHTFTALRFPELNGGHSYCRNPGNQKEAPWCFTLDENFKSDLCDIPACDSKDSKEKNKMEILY
T2 sequence (Q01973 161-307 limits assumed): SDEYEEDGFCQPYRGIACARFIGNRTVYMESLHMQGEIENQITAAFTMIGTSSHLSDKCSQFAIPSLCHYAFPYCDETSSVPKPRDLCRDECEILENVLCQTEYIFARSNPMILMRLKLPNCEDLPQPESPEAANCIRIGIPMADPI
T4 sequence (Q01973 30-406): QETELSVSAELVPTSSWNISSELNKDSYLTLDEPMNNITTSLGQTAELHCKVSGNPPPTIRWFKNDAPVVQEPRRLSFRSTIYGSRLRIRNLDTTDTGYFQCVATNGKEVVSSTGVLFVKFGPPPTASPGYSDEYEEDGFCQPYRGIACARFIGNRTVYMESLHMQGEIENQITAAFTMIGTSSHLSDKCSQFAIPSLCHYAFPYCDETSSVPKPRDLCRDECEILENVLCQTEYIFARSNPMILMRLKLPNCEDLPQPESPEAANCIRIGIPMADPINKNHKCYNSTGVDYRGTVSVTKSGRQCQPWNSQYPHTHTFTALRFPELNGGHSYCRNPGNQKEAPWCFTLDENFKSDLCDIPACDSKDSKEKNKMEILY

B1: mouse monoclonal antibody (mAb) 2A2 (antibody, mouse IgG1, V domains shown)
VH: QVQLQQSGAELVRPGASVTLSCKASGYTFSDYEMHWVIQTPVHGLEWIGAIDPETGGTAYNQKFKGKAILTADKSSSTAYMELRSLTSEDSAVYYCTGYYDYDSFTYWGQGTLVTVSA
VL: DIVMTQSQKIMSTTVGDRVSITCKASQNVDAAVAWYQQKPGQSPKLLIYSASNRYTGVPDRFTGSGSGTDFTLTISNMQSEDLADYFCQQYDIYPYTFGGGTKLEIK
notes: also called mouse mAb 2A2
With B1, the binding result with Fc-hROR(d3), with Fc-hROR1(d2) and with Fc-hROR1(d2d3) was “no binding” in each case. The molecule also showed a Kd in experiment [1] of 0.1 nM.
